Measurements from ChEMBL document CHEMBL1158843, “Development of a radiochemical cyclooxygenase-1 and -2 in vitro assay for identification of natural products as inhibitors of prostaglandin biosynthesis” (J Nat Prod, 1998).

B1: Prostaglandin G/H synthase 1 (Bos taurus), O62664 (protein)
chain: MSRQGISLRFPLLLLLLSPSPVLPADPGAPAPVNPCCYYPCQHQGICVRFGLDRYQCDCTRTGYYGPNCTIPEIWTWLRTTLRPSPSFVHFLLTHGRWLWDFVNATFIRDKLMRLVLTVRSNLIPSPPTYNVAHDYISWESFSNVSYYTRILPSVPRDCPTPMGTKGKKQLPDAEFLSRRFLLRRKFIPDPQGTNLMFAFFAQHFTHQFFKTSGKMGPGFTKALGHGVDLGHIYGDNLERQYQLRLFKDGKLKYQMLNGEVYPPSVEEAPVLMHYPRGIPPQSQMAVGQEVFGLLPGLMVYATIWLREHNRVCDLLKAEHPTWGDEQLFQTARLILIGETIKIVIEEYVQQLSGYFLQLKFDPELLFGAQFQYRNRIAMEFNQLYHWHPLMPDSFRVGPQDYSYEQFLFNTSMLVDYGVEALVDAFSRQPAGRIGGGRNIDHHILHVAVDVIKESRELRLQPFNEYRKRFGMKPYTSFQELTGEKEMAAELEELYGDIDALEFYPGLLLEKCHPNSIFGESMIEMGAPFSLKGLLGNPICSPEYWKASTFGGDVGFNLVKTATLKKLVCLNTKTCPYVSFHVPDPHREDRPGVERPPTEL
B2: Prostaglandin G/H synthase 2 (Ovis aries), P79208 (protein)
chain: MLARALLLCAAVVCGAANPCCSHPCQNRGVCMSVGFDQYKCDCTRTGFYGENCTTPEFLTRIKLLLKPTPDTVHYILTHFKGVWNIVNKISFLRNMIMRYVLTSRSHLIESPPTYNVHYSYKSWEAFSNLSYYTRALPPVPDDCPTPMGVKGRKELPDSKEVVKKVLLRRKFIPDPQGTNLMFAFFAQHFTHQFFKTDIERGPAFTKGKNHGVDLSHVYGESLERQHNRRLFKDGKMKYQMINGEMYPPTVKDTQVEMIYPPHIPEHLKFAVGQEVFGLVPGLMMYATIWLREHNRVCDVLKQEHPEWGDEQLFQTSRLILIGETIKIVIEDYVQHLSGYHFKLKFDPELLFNQQFQYQNRIAAEFNTLYHWHPLLPDVFQIDGQEYNYQQFIYNNSVLLEHGVTQFVESFTRQIAGRVAGRRNLPAAVEKVSKASLDQSREMKYQSFNEYRKRFLLKPYESFEELTGEKEMAAELEALYGDIDAMELYPALLVEKPAPDAIFGETMVEAGAPFSLKGLMGNPICSPEYWKPSTFGGEVGFKIINTASIQSLICSNVKGCPFTSFSVQDAHLTKTVTINASSSHSGLDDINPTVLLKERSTEL

Assays:
[1] = substrate: CCCCC/C=C\C/C=C\C/C=C\C/C=C\CCCC(=O)O; experiment: Activity of bovine seminal microsomal COX1; conditions: Bos taurus
[2] = substrate: CCCCC/C=C\C/C=C\C/C=C\C/C=C\CCCC(=O)O; experiment: Activity of sheep placental cotyledons COX2; conditions: Ovis aries

Row | Protein | Km [1] [µM] | Km [2] [µM]
1 | B1 | 8.8 | –
2 | B2 | – | 9.7
